Test results reported in patent US20110152199A1 (ONCOTHERAPY SCIENCE, published 2011).

Biological target: T1, HLA-A2 (HLA-A*0201) on cells (human, UniProt P04439 25-302 at identity 0.94))
T1 MHC heavy: not shown
Assay: cell-based or functional assay

KLATAQFKI [CDCA1 351-359 (No. 4) peptide] was tested, and the “IFN-γ production by healthy donor 1-derived CTLs against T2 cells pulsed with the peptide at various concentrations (E/T ratio 5)” value was at least 0.2 µg/mL.
